# Test: soluble on expression in E. coli; label from the status in PepcDB or PDB records
row,Sequence,soluble on expression in E. coli
1,MRCLALDIGGTKIAAAIVKNGEIEQRQQIHTPRENVVEGMHQALGKLLADYEGQFDYVAVASTGIINNGILSALNPKNLGGLAEFPLKASIAKHTDKPIGLLNDAQAATYAEYQLQNSEQVSNFVFITVSTGVGGGIVLNQILQTGSRGIAGHIGHTLADPNGAICGCGRRGCVEAIASGRAIEAVSSQWEEPCDPKEVFERFRKNDEKATALVERSAKAIANLIADLVISLDIQKIAIGGSVGLAEGYLSLVEKYLQDFPSIYCCEIETAKFGQDAGLIGAAYWVKDVLLDKPEGTIYGLEHHHHHH,soluble
2,MLSFVIPAHDEAALIGDTLQCLHACAQAMQLDHEVIVVADACEDATAAIARSHGAQVLEVLEVQLRHIAATRNAGAQAAQGEHLLFLDADTSINPQVVGAALAALDAGAVGGGARVHLQGKRVWSERVAQAVFGWFFRVSGIAPGCFLFCTRAAFVSAGGFDTRYYAGEDVALSRALARCGRFVILRQTVHTSDRKLRSFSKREHLGLLLRFLWRGRRMLQTRDALGFWYQRRRLEHHHHHH,not soluble
3,MSLGDVVMNERELILAIETSCDETSAAVIENGTTILSNVVSSQIDSHKRFGGVVPEIASRHHVEQITVIVEEAMHEAGVDFADLAAVAVTEGPGLVGALLIGVNAAKAIAFAHQLPLIGVHHIAGHIYANRLLKELEFPLLALVVSGGHTELIYMENHGEFEVIGETRDDAVGEAYDKVARTLGLPYPGGPHIDRLAVNGEDTLQFPRAWLEPDSFDFSFSGLKSAVINTLHNAKQRGENVQAEDVAASFQASVIDVLVTKTKKAAEEYKVRQVLLAGGVAANKGLRTALEEAFFKEPIDLVIPPLSLCTDNAAMIGAAASIKFKQQTFAGMDLNGQPSLELENDEGHHHHHH,soluble
4,MGQTTEAQSLKYGEREIENGELITFPNPRPGRRYTINITLPEYTCKCPFSGYPDFATIYITYVPDQKVVELKAIKLYINSYRDRYISHEEAVNQILDDLVAACDPLEMTIKGDYQPRGNVHTVIEVTHTKEQA,not soluble
5,GMKSLHRPDLYSWSTFNPARNIDFNGFAWIRPEGNILIDPVALSNHDWKHLESLGGVVWIVLTNSDHVRSAKEIADQTYTKIAGPVAEKENFPIYCDRWLSDGDELVPGLKVMELQGSKTPGELALLLEETTLITGDLVRAYRAGGLEILPDEKLMNKQKVVASVRRLAALEKVEAVLVGDGWSVFRDGRDRLKELVATLA,soluble
6,HITHKLLIPAWDGIVLEGLSVKERKTTNNTVVLALIGHFQTEHHYLNTSFHEFQELFGTELVLINHRNYSNRSNKFANSAEEIARDVLAFAKHFRQKNKKIVLYGMCGGAAHMILAA,not soluble
7,EHRYGHLLGQINWISLGGGIHFTEPGYALDAFCDRLRRFSEQYGVQVYLEPGEAAITNTATLEVTVLDVMRNEKNLAIVDAATEAHMLDLLIYRMSARVQPDQGPHRYVIYGNSCLAGDVFGEFSFESPLQPGSRISIQDAAGYTMVKKNWFNGVRMPAIAIRELDGEIRLVREFGYQD,not soluble
8,MGHHHHHHSHMPLTSAFRAVDNDPGIIVWRIEKMELALVPVSAHGNFYEGDCYVILSTRRVASLLSQDIHFWIGKDSSQDEQSCAAIYTTQLDDYLGGSPVQHREVQYHESDTFRGYFKQGIIYKQGGVASGMKHVETNTYDVKRLLHVKGKRNIRATEVEMSWDSFNRGDVFLLDLGKVIIQWNGPESNSGERLKAMLLAKDIRDRERGGRAEIGVIEGDKEAASPELMKVLQDTLGRRSIIKPTVPDEIID,soluble
9,MKFCKKCVMPDTKPDLHFDEEGVCDACRSQEAKNQNINWQEREKEFFELIKKYKKHPVYDCVIGVSGGKDSTFQVVKMLELGLNPLCVCFEPSVPTKIGRKNLDNLNHLGVDLIHIKRDPKVYQKLAREAFIRTGDNEWQNHLGIFTSVPRIAVNFGVPLIIWGESPQIEYGGPASSKNKNILGREWLEEFGGLLGNRASDMLGVNGITEKDLFLYTYPSDEELQRVGVTGLFLGYYFKWDYKKILEISKKYGFLTLDHPVETTYENFENLDCYSNHVHDYLKYCKYGFGRATDNACLDIRLGYISREEGVRLAQKYDGKPPKKAIKKYLEFSGFSEEEFQKIVDSFTNKKIFKRDENGKFIRDYDGSLVRKDECVLK,not soluble
10,GSSGSSGAAFAKILDPAYQVDKGGRVRFVVELADPKLEVKWYKNGQEIRPSTKYIFEHKGCQRILFINNCQMTDDSEYYVTAGDEKCSTELFVRSGPSSG,soluble
